Tests used:
[1] = tested on: MS2 coat protein; assay: apparent KD of MS2 coat protein; designed switch direction (-1 OFF switch, 1 ON switch): 1; higher = weaker reporter binding
Procedure, shortened: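 Designed RNA switches sharing common flanks were transcribed on Illumina chips by stalled E. coli RNA polymerase. They were titrated with SNAP-549-labelled MS2 coat protein, from 0.7 or 1.5 nM doubling to 3 µM, in Tris-HCl pH 7.5 buffer with KCl, MgCl2, BSA, DTT, tRNA and Tween-20. Titrations ran without input, with 200 uM small-molecule ligand, or with an oligonucleotide input. The apparent KD of each design is the median over its clusters, after curve-fitting of normalised cluster fluorescence.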

[2] = tested on: MS2 coat protein; assay: apparent KD of MS2 coat protein; higher = weaker reporter binding; conditions: Eterna round: R107
Procedure, shortened: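 Apparent KD stands for the median, per design, of fits to normalised cluster binding curves. The curves came from titrating on-chip-transcribed RNA switches on Illumina sequencing clusters with SNAP-549-labelled MS2 coat protein, twofold from 0.7 or 1.5 nM to 3 µM. Buffer was 100 mM Tris-HCl pH 7.5, 80 mM KCl, 4 mM MgCl2, without or with constant ligand.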

[3] = input ligand: theophylline 20 uM
[4] = input ligand: theophylline 2 mM
[5] = input ligand: tryptophan 2.4 mM

Sequence	apparent KD of MS2 coat protein ([1]; input ligand: FMN 200 uM) [nM]	apparent KD of MS2 coat protein ([1]; input ligand: microRNA oligo, concentration not stated) [nM]	apparent KD of MS2 coat protein ([1]; input ligand: none) [nM]	apparent KD of MS2 coat protein ([2]; input ligand: arginine 13.2 mM) [nM]	apparent KD of MS2 coat protein [2, 3] [nM]	apparent KD of MS2 coat protein [2, 4] [nM]	apparent KD of MS2 coat protein ([2]; input ligand: none) [nM]	apparent KD of MS2 coat protein [2, 5] [nM]
GGCGCCGGCGCAGGAUAUAAUAGCACCAACAAAUUAGAAGGGUGUCUGACUUAAACAUGAGGAUCACCCAUGUGCGCCACAAAA [Eternabot solution 2] (Eterna round: R96, puzzle: Same State NG 1)	198	137	311					
AUAAAUAAUAAAUAAGAUAAAAUGGGUGAACGAGGACCGGUACGGCCGCCACUCGGACAUGAGGAUCACCCAUGUCCAUGUGAAA [#22 Exclusion Tryptophan A]				14	19.8	20.2		
AAUUGGGUUGGUGAGGUGGUUGGAGGCGAUACCAGCGUGGAAACACGCCCUUGGCAGCGCCAGGACAUGAGGAUCACCCAUGUAA [Praha]				32.1	486	713	260	205
GCUAGCCGAAAGGCUAGCAGCGCUACAGAAGGAGCGUGCGAAAGCACAGGUAGGUCGCUGAACAUGAGCAUCAGCCAUGUUGCGC [SSAA - Alter Amptam #2 V2+NP]				14.8	18.5	18.6	12.2	11.7
CCUCACGAAAUCGAUGAAAGCAUGUGGCACCGAGGACCGGUACGGCCGCCACUCGCAUCCACACAUGAGGAUCACCCAUGUAAGA [theeternabot_exclusion_MS2_Trp_A_9]				27.3	37.6	59.6		
CCUAUGCAGUCGGCCGCCACUGAACAUGAGGAUCACCCAUGUAAUUAAAAUUAAGGUCCUAAAAUCAGGACCGGGACUGUAUAGG [Ex Tryptophan B 6]				37.6	43.3	56.6		
UCACAUGAGGAUCACCCAUGUGUCAGAGAAGGAGCGGCCGCAAGGCCAGGUAGGUCGCUCGGGUAUGGUGAGGUUCACCCGUGUG [#1 Exclusion - Arginine A Attempt #13 (Inspired by cyborg)]				28.3	73	57	47.3	56.7
CCAUAUGUAACUGAUACCAGUGUACUGACAUGAGGAUCACCCAUGUUGGGUUUUGUUGUACACCCUUGGCAGCAGAAUCAUAUGG [AstrosExyTheB#17]				48.3	73.6			53.9
GGACUAACCAGAAGGAGCGGCGCGCAGAAACUGCUAAUUCCUCCGCACGAGGAUCACCCGUGUCAGGUAGGUCGCUGGUUAGUCG [ArgBX 28]				10.3	12.4	13.4		11
CUCUUCCGGAAGGAUACCAGCUACAUGAGGAUCACCCAUGUAGGAGCGGGUUUCUAAUGUAGCCCUUGGCAGCCUUAGCCCGUCG [Querarra]				15.9	36.5			18
GCACUACAUGAGGAUCACCCAUGUGCAGAUACCAGAGGUGUAUGCCUCCCUUGGCAGCUGAGUAGCUCUGGAGGCCUAUUGGUUU [Same State Theophylline A GF15]				15.7	20			16.8
AUAUAUACAUGAGGAUCACCCAUGUUAUUUCGAGGACCGGUACGGCCGCCACUCGAUAGAGUAGAAGUAAAUUUUGAUUCAUGUA [JR_SSTryptoA_Sub009]				17.9	27	23.5		
GCGGUGGGUCAAAAGUAAUAGAAUUCUGAAGGAGCGUGAUGAAACACAGGUAGGUCGCAGGAACAUGAGGAUCACCCAUGUACGG [Same State Arginine A GF21]				34.4	49	37.5	34	35.7
CUAUAAUAUAGAAGGAGCGUCGAAAAUGGGUAAACAUGAGGAUCACCCAUGUAAAGGGAACGACAGGUAGGUCGCUAUAUUAUAG [AstromonsSSArgB#12]				181	237	305	228	223
GUUAUAUUAAUUGAUACCAGCGAGAAAACAUGAGGAUCACCCAUGUUCGCCCAUGUUAAGCGCCCUUGGCAGCAAUUUUAUUAGC [AstrosExyTheB#2]				32.1	44.3			37.5
UCACGGCACUGAAGGAGCGAGUUGACAAACAUGAGGAUCACCCAUGUUAUGGGUUGUUAAUCUCAGGUAGGUCGCAGUUGUCGUG [Same State Arginine B GF 21]				163	418	458	379	388
ACAUGAAGAACAGCGGUGGGCGCGCUCGAUACCAGUAUUUUAACCUACCCUUGGCAGCGACAUGAGGAUCACCCAUGUGAGAUGA [XTheo A #7]				18.5	26.8			16.6
UGUAUGGACUGAAGGAGCGGGUUGAUAACCUGAGGAUCAUCCAGGUAAAAGGCGAAAGCCACCCAGGUAGGUCGCAGUCCAUACU				199	344	433		322

Sequence	apparent KD of MS2 coat protein ([1]; input ligand: FMN 200 uM) [nM]	apparent KD of MS2 coat protein ([1]; input ligand: microRNA oligo, concentration not stated) [nM]	apparent KD of MS2 coat protein ([1]; input ligand: none) [nM]	apparent KD of MS2 coat protein ([2]; input ligand: arginine 13.2 mM) [nM]	apparent KD of MS2 coat protein [2, 3] [nM]	apparent KD of MS2 coat protein [2, 4] [nM]	apparent KD of MS2 coat protein ([2]; input ligand: none) [nM]	apparent KD of MS2 coat protein [2, 5] [nM]
ACAUGAGGAUCACCCAUGUUCCUCAUUGAUACCAGUGAAUUUAGACGCCCUUGGCAGCGAGUUUUUUUAUAAGAUGUUUUUUUUU [6.H]				244	829			1040
UGUCAGCGAAAGUUGACAUGUCUUACCGGUCGAGGACCGGUACGGCCGCCACUCGAUCUCUCGCACAUGAGGAUCACCCAUGUCG [SS Tryp A #17]				12.8	15.4	12.8		
AACAUGAGGAUCACCCAUGUCCCUCCCUCCCGAGGACCGGUACGGCCGCCACUCGCCCUCCCUCCCUAAGAAAGAAAGAAGAAGA [Same State - Trypopjan A]				54	38	38.5	37.9	32.1
CUGACGGACUCGGCCGCCACUGAUAGUAGGACAUGAGGAUCACCCAUGUAAACGAACCUCAUAGCCAGGACCGGGAGUCACGAAG [Same State Tryptophan B GF 22]				56.4	189	410	204	49.5
AUAACAUGAGGAUCACCCAUGUAUUGGUUACGAGGACCGGUACGGCCGCCACUCGUAUUAUAGUGGUAUUUUGUUUAUAUGAUAA [JR_Nu_TrtptoA_Sub019]				14.8	20	18.4		
AUACAUGAGGAUCACCCAUGUGAUGGCCGGCGAGGACCGGUACGGCCGCCACUCGUGAUCCGUCCUGAGAGCAAAGCCCUCAGCA [Onedti]				17.3	287	237		
CGGUAACCACAUGAGGAUCACCCAUGUGAAGGAGCGGCGAAUAAGCCAGGUAGGUCGCGCAUGAAUAAAUCAUGUAGGUGCCGAA [XArg-A 15 NuPack]				31.2	69.7	156	48.4	99.8
AAAUAAUAUUAAUUAAUUAUAUUAUUCUGACGAGGACCGGUACGGCCGCCACUCGGCCCAUGGUACAUGAGGAUCACCCAUGUCU [Same State - Tryptophan A]				17	17.2	18.9		
AAUUGGGUUGGUGAGGUGGUUGGAGGCGAUACCAGCGUGGAAACACGCCCUUGGCAGCGCCAGGACAUGAGGAUCACCCAUGUUC [Ostrava]				19.6	36			22.1
UGUGCAUGAGUUGUAAAAGCUCAUGGGCAUCGAGGACCGGUACGGCCGCCACUCGGCUGUACAUGAGGAUCACCCAUGUCAGGGU [#1 Same State - Tryptophan A Attempt #22 (HarryS)]				133	609	1100		
ACAUGAGGAUCACCCAUGUAAUUAACAGAAGGAGCGUGAUGGAUCACAGGUAGGUCGCUGUACUUAGAAAUAACUCUCAUGAAUA [JR_Nu_SSArginiA_Sub024]				15.2	27.6	16.6	18.2	17.1
AGUAGCUGCCGAAGGAGCGCCGUGUUCCUACAUGAGGAUCACCCAUGUAGCGUUGGGUUACGGCAGGUAGGUCGCGGCGGAUAGG [Same State - Arginine B / B]				30	119	73.8	34.3	119
AAGAAGUUUUGAUUUUUAUGAAGUAGUGAUACCAGUCAAGAAAGAGACCCUUGGCAGCGCAACAUGAGGAUCACCCAUGUAAGAA [A random design]				26.2	26.7			24.2
GGUUACUCUACGGCCGCCACUGGGCAUGUAAAUAACAUGAGGAUCACCCAUGUGGAUUAAAAUUACAGGACCGGGUAGUGUAACC [Tryptophan B 21]				86.6	239	345	300	36.1
GGUGAUCCGUAUCACCGGAUCAUCGGUGAUACCAGCAUCGAAAGAUGCCCUUGGCAGCACCAACAUGAGGAUCACCCAUGUAAUA [(M)'-(T)'-(M)''-(T1)-(T2)-(M1)-(M2)_Design6]				70.3	67			98.4
UCUUACUUGGUAGAUACCAGCGUGUUAUCUUUCUUUUGACAUGAGGAUCACCCAUGUAUAUGCCCUUGGCAGCUGCGUAGUGUGU [#03 Same State - Theophylline B]				21.6	35.7			27.4
GCUAGGUCUACGGCCGCCACUAGACGUGGGUAAAACAUGAGGAUCACCCAUGUGCUACGGGCGAAUAGGACCGGGUAGACCUAGC [SSTB NP+V+V2 #15 +-Same Structure]				60.1	529	711	368	85.4
UUGAUCAUAUAUGAAAACAUAUAUGCAGAAGGAGCGUGAUAAAACACAGGUAGGUCGCUGAAGGGAACAUGAGGAUCACCCAUGU [AstrosSSArgA#3]				30.2	39.4	34.1	27.2	26.8
